Results published in publication PMC2962499 (The Journal of Biological Chemistry, 2010).

T1: SpRpn12 fragment (residues 1-250) (Schizosaccharomyces pombe, UniProt P50524 1-250)
T1 sequence (looked up): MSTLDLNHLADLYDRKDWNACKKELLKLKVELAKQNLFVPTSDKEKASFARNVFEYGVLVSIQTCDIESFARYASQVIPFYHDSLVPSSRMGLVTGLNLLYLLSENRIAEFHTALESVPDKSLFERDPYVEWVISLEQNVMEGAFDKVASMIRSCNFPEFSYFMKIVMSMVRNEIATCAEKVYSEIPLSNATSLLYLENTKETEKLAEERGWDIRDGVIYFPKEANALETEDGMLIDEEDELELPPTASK

B1: SpRpn10 VWA domain (residues 1-195) (domain or fragment, Schizosaccharomyces pombe, UniProt O94444 1-195, looked up)
chain: MVLEATMILIDNSEWMINGDYIPTRFEAQKDTVHMIFNQKINDNPENMCGLMTIGDNSPQVLSTLTRDYGKFLSAMHDLPVRGNAKFGDGIQIAQLALKHRENKIQRQRIVAFVGSPIVEDEKNLIRLAKRMKKNNVAIDIIHIGELQNESALQHFIDAANSSDSCHLVSIPPSPQLLSDLVNQSPIGQGVVASQ
B2: Schizosaccharomyces pombe Rpn10, full-length (residues 1-243) (natural protein)
chain: MVLEATMILIDNSEWMINGDYIPTRFEAQKDTVHMIFNQKINDNPENMCGLMTIGDNSPQVLSTLTRDYGKFLSAMHDLPVRGNAKFGDGIQIAQLALKHRENKIQRQRIVAFVGSPIVEDEKNLIRLAKRMKKNNVAIDIIHIGELQNESALQHFIDAANSSDSCHLVSIPPSPQLLSDLVNQSPIGQGVVASQNQFEYGVDPNLDVELALALELSMAEERARQEVAAQKSSEETEDKKMQE

Columns and labels:
[1] = target: T1, SpRpn12 fragment (residues 1-250); test: NMR titration
[2] = target: monoubiquitin (bovine) (bovine, UniProt P0CG53 1-76); test: ITC

| Binder | binding result [1] | Kd [2] |
| --- | --- | --- |
| B1 | binds | – |
| B2 | – | 139 µM |
